Experimental data reported in patent US20030232013A1, “Therapeutic and diagnostic targeting of cancers cells with tumor homing peptides” (priority 2002, published 2003).
Where two headings read alike, the source gives them in different places. Bridge positions count the residues as written; N and C are the ends. Peptide text beside a SMILES is read from it. * marks the point of attachment. DOTA = O=C(O)CN1CCN(CC(=O)O)CCN(CC(=O)*)CCN(CC(=O)O)CC1

Legend:
[1] = tested on: T47D tumor bearing SCID mice; assay: In vivo biodistribution in T47D tumor bearing SCID mice; settings: 4 hours post-injection, n = 4
Text: (§1) In vivo iodistribution studies. Four- to 5-week old female ICR SCID ([…]) outbred mice were obtained from Taconic (Germantown, N.Y.). The mice were housed five animals per cage in sterile micro isolator cages in a temperature- and humidity-controlled room with a 12-hour light/12-hour dark schedule. The animals were fed autoclaved rodent chow (Ralston Purina Company, St. Louis, Mo.) and water ad libitum. Animals were housed one week prior to inoculation of tumor cells and anesthetized for injections with isoflurane (Baxter Healthcare Corp., Deerfield, Ill.) at a rate of 2.5% with 0.4L oxygen through a non-rebreathing anesthesia vaporizer.
(§2) Human breast cancer MB231 and T47D cells were injected on the bilateral subcutaneous (s.c.) flank with ˜5×10^6 cells in a suspension of 100 μl normal sterile saline per injection site. MB231 and T47D cells were allowed to grow in vivo two to three weeks post inoculation developing tumors ranging in sizes from 0.02-1.30 grams. The biodistribution and uptake of ^111In-DOTA-Phe^19-STh or ^111In-DOTA-6-Ahx-Phe^19-STh in tumor bearing SCID mice was studied. The mice (average weight, 25 g) were injected with aliquots (50-100 μl) of the radiolabeled peptide solution (55-75 kBq) in each animal via the tail vein. Tissues, organs and tumors were excised from the animals sacrificed at 1 hr, 4 hrs and 24 hrs p.i. For blocking studies, an access of non-radioactive 6-Ahx-Phe^19-STh (100 μg) was also injected along with the radiolabeled peptide solution. The radioactivity was measured in a NaI counter and the percent-injected dose per organ and the percent-injected dose per gram tissue were calculated (Tables 5 and 6). Animal studies were conducted in accordance with the highest standards of care as outlined in the NIH guide for Care and Use of Laboratory Animals and the Policy and Procedures for Animal Research at the Harry S. Truman Memorial VA Hospital and according to approved protocols.

[2] = as above; settings: female, ICR SCID, mouse, iv, total radioactivity, n = 4; for tissue uptake at 1 h / dose excreted at 1 h: 1 hour post-injection; for tissue uptake at 24 h / dose excreted at 24 h: 24 hours post-injection
Text: as §1, §2

[3] = T47D tumor, T47D tumor, read-out: biodistribution, Tumor
[4] = blood, read-out: biodistribution, Blood
[5] = heart, read-out: biodistribution, Heart
[6] = kidney, read-out: biodistribution, Kidney
[7] = large intestine, read-out: biodistribution, Large Intestine
[8] = liver, read-out: biodistribution, Liver
[9] = lung, read-out: biodistribution, Lung
[10] = muscle, read-out: biodistribution, Muscle
[11] = pancreas, read-out: biodistribution, Pancreas
[12] = small intestine, read-out: biodistribution, Small Intestine
[13] = spleen, read-out: biodistribution, Spleen
[14] = stomach, read-out: biodistribution, Stomach
[15] = urine, read-out: biodistribution, Urine (Avg % ID)

## CC(C)C[C@@H]1NC(=O)[C@H](CCC(=O)O)NC(=O)[C@@H]2CSSC[C@@H]3NC(=O)[C@H](C)NC(=O)[C@@H]4CCCN4C(=O)[C@H](CC(N)=O)NC(=O)[C@H](CSSC[C@H](NC(=O)[C@H](Cc4ccc(O)cc4)NC(=O)[C@H](CC(N)=O)NC(=O)[C@H](CO)NC(=O)[C@H](CO)NC(=O)[C@H](CC(N)=O)NC(=O)CN4CCN(CC(=O)O)CCN(CC(=O)O)CCN(CC(=O)O)CC4)C(=O)N2)NC(=O)[C@H](CSSC[C@@H](C(=O)N[C@@H](Cc2ccccc2)C(=O)O)NC(=O)CNC(=O)[C@H]([C@@H](C)O)NC3=O)NC1=O [^111In-DOTA-Phe^19-STh, metal not drawn] ({DOTA}-NSSNYCCELCCNPACTGCF-OH; disulfide 6-11, 7-15, 10-18)
[1]
  biodistribution, Heart: 0.00 ± 0.00 % ID/gm
[2]; T47D tumor, T47D tumor, Blocking (100 μg non-radioactive 6-Ahx-Phe^19-STh co-injected), read-out: biodistribution, Tumor
  tissue uptake at 1 h: 0.43 ± 0.2 %ID/g
[2]; [3]
  tissue uptake at 1 h: 0.67 ± 0.23 %ID/g
  tissue uptake at 24 h: 0.14 ± 0.12 %ID/g
[2]; T47D tumor, T47D tumor, 4 hours post-injection, read-out: biodistribution, Tumor
  tissue uptake at 4 h: 0.17 ± 0.16 %ID/g
[2]; blood, Blocking (100 μg non-radioactive 6-Ahx-Phe^19-STh co-injected), read-out: biodistribution, Blood
  tissue uptake at 1 h: 0.57 ± 0.19 %ID/g
[2]; [4]
  tissue uptake at 1 h: 0.82 ± 0.34 %ID/g
  tissue uptake at 24 h: 0.02 ± 0.01 %ID/g
[2]; blood, 4 hours post-injection, read-out: biodistribution, Blood
  tissue uptake at 4 h: 0.01 ± 0.01 %ID/g
[2]; faeces, read-out: biodistribution, Feces (Avg % ID)
  dose excreted at 24 h: 1.4 ± 0.7%
[2]; heart, Blocking (100 μg non-radioactive 6-Ahx-Phe^19-STh co-injected), read-out: biodistribution, Heart
  tissue uptake at 1 h: 0.13 ± 0.1 %ID/g
[2]; [5]
  tissue uptake at 1 h: 0.15 ± 0.11 %ID/g
  tissue uptake at 24 h: 0.08 ± 0.08 %ID/g
[2]; kidney, Blocking (100 μg non-radioactive 6-Ahx-Phe^19-STh co-injected), read-out: biodistribution, Kidney
  tissue uptake at 1 h: 5.88 ± 1.47 %ID/g
[2]; [6]
  tissue uptake at 1 h: 4.7 ± 1.4 %ID/g
  tissue uptake at 24 h: 1.04 ± 0.33 %ID/g
[2]; kidney, 4 hours post-injection, read-out: biodistribution, Kidney
  tissue uptake at 4 h: 2.02 ± 0.35 %ID/g
[2]; large intestine, Blocking (100 μg non-radioactive 6-Ahx-Phe^19-STh co-injected), read-out: biodistribution, Large Intestine
  tissue uptake at 1 h: 0.17 ± 0.06 %ID/g
[2]; [7]
  tissue uptake at 1 h: 0.57 ± 0.21 %ID/g
  tissue uptake at 24 h: 0.1 ± 0.03 %ID/g
[2]; large intestine, 4 hours post-injection, read-out: biodistribution, Large Intestine
  tissue uptake at 4 h: 1.74 ± 1.04 %ID/g
[2]; liver, Blocking (100 μg non-radioactive 6-Ahx-Phe^19-STh co-injected), read-out: biodistribution, Liver
  tissue uptake at 1 h: 0.19 ± 0.04 %ID/g
[2]; [8]
  tissue uptake at 1 h: 0.26 ± 0.12 %ID/g
  tissue uptake at 24 h: 0.03 ± 0.01 %ID/g
[2]; liver, 4 hours post-injection, read-out: biodistribution, Liver
  tissue uptake at 4 h: 0.06 ± 0.01 %ID/g
[2]; lung, Blocking (100 μg non-radioactive 6-Ahx-Phe^19-STh co-injected), read-out: biodistribution, Lung
  tissue uptake at 1 h: 0.45 ± 0.16 %ID/g
[2]; [9]
  tissue uptake at 1 h: 0.56 ± 0.19 %ID/g
  tissue uptake at 24 h: 0.06 ± 0.03 %ID/g
[2]; lung, 4 hours post-injection, read-out: biodistribution, Lung
  tissue uptake at 4 h: 0.09 ± 0.06 %ID/g
[2]; muscle, Blocking (100 μg non-radioactive 6-Ahx-Phe^19-STh co-injected), read-out: biodistribution, Muscle
  tissue uptake at 1 h: 0.18 ± 0.08 %ID/g
[2]; [10]
  tissue uptake at 1 h: 0.19 ± 0.08 %ID/g
  tissue uptake at 24 h: 0.04 ± 0.03 %ID/g
[2]; muscle, 4 hours post-injection, read-out: biodistribution, Muscle
  tissue uptake at 4 h: 0.06 ± 0.04 %ID/g
[2]; pancreas, Blocking (100 μg non-radioactive 6-Ahx-Phe^19-STh co-injected), read-out: biodistribution, Pancreas
  tissue uptake at 1 h: 0.16 ± 0.07 %ID/g
[2]; [11]
  tissue uptake at 1 h: 0.21 ± 0.09 %ID/g
  tissue uptake at 24 h: 0.02 ± 0.03 %ID/g
[2]; pancreas, 4 hours post-injection, read-out: biodistribution, Pancreas
  tissue uptake at 4 h: 0.04 ± 0.05 %ID/g
[2]; small intestine, Blocking (100 μg non-radioactive 6-Ahx-Phe^19-STh co-injected), read-out: biodistribution, Small Intestine
  tissue uptake at 1 h: 0.25 ± 0.1 %ID/g
[2]; [12]
  tissue uptake at 1 h: 1.37 ± 0.55 %ID/g
  tissue uptake at 24 h: 0.09 ± 0.02 %ID/g
[2]; small intestine, 4 hours post-injection, read-out: biodistribution, Small Intestine
  tissue uptake at 4 h: 0.44 ± 0.07 %ID/g
[2]; spleen, Blocking (100 μg non-radioactive 6-Ahx-Phe^19-STh co-injected), read-out: biodistribution, Spleen
  tissue uptake at 1 h: 0.12 ± 0.07 %ID/g
[2]; [13]
  tissue uptake at 1 h: 0.19 ± 0.16 %ID/g
  tissue uptake at 24 h: 0.12 ± 0.08 %ID/g
[2]; spleen, 4 hours post-injection, read-out: biodistribution, Spleen
  tissue uptake at 4 h: 0.13 ± 0.15 %ID/g
[2]; stomach, Blocking (100 μg non-radioactive 6-Ahx-Phe^19-STh co-injected), read-out: biodistribution, Stomach
  tissue uptake at 1 h: 0.61 ± 0.64 %ID/g
[2]; [14]
  tissue uptake at 1 h: 0.53 ± 0.47 %ID/g
  tissue uptake at 24 h: 0.02 ± 0.01 %ID/g
[2]; stomach, 4 hours post-injection, read-out: biodistribution, Stomach
  tissue uptake at 4 h: 0.17 ± 0.06 %ID/g
[2]; urine, Blocking (100 μg non-radioactive 6-Ahx-Phe^19-STh co-injected), read-out: biodistribution, Urine (Avg % ID)
  dose excreted at 1 h: 93.1 ± 1.5%
[2]; [15]
  dose excreted at 1 h: 86.4 ± 5%
  dose excreted at 24 h: 97.8 ± 0.7%
[2]; urine, 4 hours post-injection, read-out: biodistribution, Urine (Avg % ID)
  dose excreted at 4 h: 96.1 ± 1%
